Tested on: MS2 coat protein
Assay: apparent KD of MS2 coat protein; designed switch direction (-1 OFF switch, 1 ON switch): -1; higher = weaker reporter binding
How it was run: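 Designed RNA switches sharing common flanks were transcribed on Illumina chips by stalled E. coli RNA polymerase. They were titrated with SNAP-549-labelled MS2 coat protein, from 0.7 or 1.5 nM doubling to 3 µM, in Tris-HCl pH 7.5 buffer with KCl, MgCl2, BSA, DTT, tRNA and Tween-20. Titrations ran without input, with 200 uM small-molecule ligand, or with an oligonucleotide input. The apparent KD of each design is the median over its clusters, after curve-fitting of normalised cluster fluorescence.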

[1] = Eterna round: R95, input ligand: microRNA oligo, concentration not stated
[2] = Eterna round: R95, input ligand: FMN 200 uM
[3] = Eterna round: R95, input ligand: none

Row | Sequence | apparent KD of MS2 coat protein (input ligand: FMN 200 uM) | apparent KD of MS2 coat protein (input ligand: none) | apparent KD of MS2 coat protein [1] | apparent KD of MS2 coat protein [2] | apparent KD of MS2 coat protein [3]
1 | CGCUCACAUGAGGAUCACCCAUGUCAGGAUAUCUCAGUGCAUCCACACGGACGCAUCAAGAGAAGGGACAAAAC [Vinxlusion 3 - Jieux - Exclusion 1] (Eterna round: R97, puzzle: Exclusion 1) | 0.189 µM | 0.112 µM |  |  | 
2 | AUUAGCUGAGGAUAUGCAGCUUUGUUCGUCGAGUGAAAAGAACAUGAGGAUCACCCAUGUAGAAGGCAGUUGAC [Raargexe] (puzzle: Exclusion 2) |  |  | 0.0148 µM |  | 
3 | GGUGGACAUGAGGAUCACCCAUGUGAGGAUAUCGGCCGGCUAGUGGCGGCUGGCUUCUCGAGAAGGCGCAUAGU [Exclusion 1 V77] (puzzle: Exclusion 1) |  |  | 0.0373 µM |  | 
4 | GGUGCGUAUGUGAGGAUAUGCUGGUCCUUGGAUCAGCAGAAGGCACAUGAGGAUCACCCAUGUGGUGUCGUACA [salish99_Bmod_Ex4_014] (puzzle: Brourd's mod of Exclusion 4) |  |  | 0.255 µM |  | 
5 | GGCACACAUGAGGAUCACCCAUGUGAGGAUAUGCUGCGAUCGUCGUAAGACGAUAGCAGUAGAAGGCACAUGCC [Mat - Exclusion 1 - Eli Mod - D8] (Eterna round: R97, puzzle: Exclusion 1) | 0.0229 µM | 0.0205 µM |  |  | 
6 | GUGUAGAUAGGAUAUGCUUUGAGCCUACGAAAGUACGCUCGACAUGAGGAUCACCCAUGUAGAAGGGUUUACAC [LRO-Excl2-05] (puzzle: Exclusion 2) |  |  | 0.0887 µM |  | 
7 | GAGAGACGAGGAUAUGCAGGAGUGCAGUCAGGUUCCAAAAUACAUGAGGAUCACCCAUGUAGAAGGUGUCAUCU [Eternabot (L2) Solution 26] (Eterna round: R97, puzzle: Exclusion 2) | 0.0166 µM | 0.0156 µM |  |  | 
8 | ACACAGCGAGGAUAUACAUGAGGAUCACCCAUGUGGCGGCCGUUACGGUAGCGCUAGUGUAGAAGGCGCAUUGG [EX3 #36] (Eterna round: R97, puzzle: Exclusion 3) | 0.0658 µM | 0.0942 µM |  |  | 
9 | AGAGAGUCAGGAUAUCGAAGGGAGAGAAAAGGAGAGAGGUACGAGAAGGGACAUGAGGAUCACCCAUGUAGGUG [JR_Exclusion4)Sub015] (puzzle: Exclusion 4) |  |  | 0.413 µM | 0.279 µM | 0.622 µM
10 | CCCACGUCAGGAUAUCUAAAGGUCCGAAAUAACGGGACUGCAGAGAAGGGACAUGAGGAUCACCCAUGUCCUCG [EX4 C.21] (Eterna round: R97, puzzle: Exclusion 4) | 0.027 µM | 0.018 µM |  |  | 
11 | GUUUCACAUGAGGAUCACCCAUGUGAGGAUAUGAAUUUGUUAACCGUAGUUAAUAGAUUCAGAAGGCGCGUGAU [JRxlusion 1- Jieux - Exclusion 1] (Eterna round: R97, puzzle: Exclusion 1) | 0.0666 µM | 0.0703 µM |  |  | 
12 | UUUUUACAUGAGGAUCACCCAUGUGAGGAUAUGGAGCGCGACCGCGCGGUCGCGUACACCAGAAGGCGCAGGAA [1st #75] (Eterna round: R97, puzzle: Exclusion 1) | 0.0306 µM | 0.0249 µM |  |  | 
13 | GGACAUUCGGUAAGGAUAUUGACCCAACCUAGGAUCAAGAAGGUACAUGAGGAUCACCCAUGUCAGAUCCGUCA [Eternabot (Original) Solution 34] (Eterna round: R97, puzzle: Brourd's mod of Exclusion 4) | 0.0274 µM | 0.016 µM |  |  | 
14 | AAGAAACAUGAGGAUCACCCAUGUGAGGAUAUGAAAAAGAAAAGAAAAGAAAGAAGAUUCAGAAGGCACAAAGG [salish99-ex1_r3_021] (puzzle: Exclusion 1) |  |  | 0.0319 µM | 0.0607 µM | 0.0339 µM
15 | CCUCUACAUGAGGAUCACCCAUGUGAGGAUAUGUUGACGAGCCAGAAAUGGCUGGUCAACAGAAGGCAUAUGUA [Exclusion 1 (Mod 2.1 solution 16 by Eternabot)] (Eterna round: R97, puzzle: Exclusion 1) | 0.0437 µM | 0.0237 µM |  |  | 
